The source of these data is the DeepSol protein solubility set.

The data set can be described thus: soluble on expression in E. coli; label from the status in PepcDB or PDB records.
For the sequence “GSHMRLGAQSIQPTANLDRTDDLVYLNVMELVRAVLELKNELAQLPPEGYVVVVKNVGLTLRKLIGSVDDLLPSLPSSSRTEIEGTQKLLNKDLAELINKMRLAQQNAVTSLSEECKRQMLTASHTLAVDAKNLLDAVDQAKVLANLAHPPAE”, the “soluble on expression in E. coli” value was “soluble”.

Regarding “MSLDESKGFIEDSKLSVKTRMLYFSRDFRNNAPGSQSRVEETGLGFLGTFESGFTQGTVGFGVDAIGMLGLKLDSGKGRAGTGLFPTGADGRSQDDYSEGGGAVKMRISNTVLKFGDQFTALPVLATDDSRLLPEVAEGGLITSNEIDDLTVHAGHFTALNAQAQTYHDSLNLTEANVFGGTYAITDSLSTSVYYSRIEDHFRKWYGNINWALPISDKQGLVFDFNIYDTKSIGNNLTGAYVSKSDGTNELDNIAASLSAAYNVGAHTFTLAYQKVSGDGDYAYGVDGGGTVFLANSVARSDFNAEDEKSWQARYDLNFAEFGVPGLTFMTRYVSGTGATTRTTDSGKEWERDIDVKYVMQSGPAKDLSFRVRQATYRSGEGHHHHHH”, the “soluble on expression in E. coli” value is “soluble”.

Turning to “MSTILSLAPQNVWKHFYSLTQIPRPSGHMEKVTEFLINFGKGLGLESFVDEAGNVIIRKPATPGMENRKGVILQAHMDMVPQKNNDTVHDFEKDPIETYIDGDWVKAKGTTLGADNGLGVAAIMAVLEANDLKHGPLEALITKDEETGMYGAFGLKPGTVNGEILLNLDSEDEGELYIGCAGGMDVTATLEYKEVAPEEGDVAVKVSLKGLRGGHSGLEINEGRANANKLLVRFVREAVASYEARLVSWDGGNMRNAIPREACAVLAIPAENEEELLGLVKYCEDLFNEEFSAIETPISFTAERVELPAGEVPEEIQDNLIDAIFACQNGVTRMIPTVPDTVETSSNLAIITIGGGKAEIKILARSSSDSMKEYLTTSLESCFSMAGMKVEMTGGYSGWQPNVESPILHAMKESYKQQFGVEPAVKVIHAGLECGIIGAIIPGLDMISFGPTLRSPHSPDERALIPTVQKFYDFLVATLAQTPTKLEHHHHHH”, the “soluble on expression in E. coli” value is recorded as “soluble”.

Regarding “MGHHHHHHSHMGDPEYLATFRIVVMPIAREFSPDLVLVSAGFDAAEGHPAPLGGYHVSAKCFGYMTQQLMNLAGGAVVLALEGGHDLTAICDASEACVAALLGNRVDPLSEEGWKQKPNLNAIRSLEAVIRVHSKYWGCMQRLASCPDSWVPRVPGADKEEVEAVTALASLSVGILAEDRPSEQLVEEEEPMNL”, the “soluble on expression in E. coli” value is “not soluble”.

On to “MGSDKIHHHHHHMEILMLKTFKAVVDEDGIKGAADKLHTVQSNITSRIKKLEKELDTKLFTIIGRKLQLTPSGQQLCEYADQILQLEYQATSAILRNKGTYELRVGMPETFAAVHMPMALKKLKLNHAEIRTKIHTDTSERLVFSVLNNKVDCAAIGNAPKHENLIIIPIVKEELIMVTPRDSEHDPVLFVRDEGCGYRKHALIWQQKAGRGNDELMVMSSADGVLGCIAAGLGYTIIGKNMVAGSRYEKSLVMTPVSHGPKHVQLSIVYRKDSPLESGILTLAKLLTK”, for which the “soluble on expression in E. coli” value is listed as “not soluble”.

“MSESYTLIKELKRQLKSAGLHYVDVAQHLNLSEGSVKRLLAEGQHISLERLERICQLIGLEMAELFKLAAAHNKGLESLTLEQEKQLVDDKALLLVAICVVNGYQFEQIVQQYTFNELELVQKLAHLDRLNIIDLQPNNKIRLRISPTFKWQMGGPIQRFFQQQVQDAFFQSYFSGEDEQLSMATGLMSVPTNKKLQQKLQKVIDEFYQACQSDSSLDMDEKHGTSLIIAMRRWTFPLFEPWERKPTQKSQN”: the “soluble on expression in E. coli” value is on record as “not soluble”.

“MAVKMKYWTDEVGGERGSLKVELKPFGYRIIPLTQWKTLIAMDDVEVKKGEPEIIEVRPFTIPGGTMVGPLHIMRHALGTVLDVVECGIPTRVEDEKCIQRVVFLPVDDGVVREGDIVGVLKVFFIKTGLISRLFNLKPTKVELREEIVEANITWRDDGNIYREKISTKVFGYTRTHVGVWEPLVADEDVGVRAGDVLRVKIRNVELPPNTVVVPLSISRNPYGVVVDVVQLGKPRRVEEPKNIEQAVFLAVDDGEIKRGDLLGVINVYYVGLKKLEPLIATKEPQDFTLVYRKEEKIIRKKVHLPPFGYHRSPVARWEVVVAAEDKELTKNKPVRVKIKKIKIPANTIVYPMEIMRHSDGVLIDLVSDLPWRVEEGGKVDEAIFLPLFDGKIEKDDLLGVINLYQVELSPVEKIREMYNRFVKLSEEELMKYVEGLQ”: the “soluble on expression in E. coli” value is recorded as “soluble”.

As to “MSLTLDLRESEIVEAVYESNHTWVSVEAKIDYELDPTVLFHLTEENAGDRFYYKKNDNKTSFFGYHAITRFKNDFENKQSIFREWQKYKSDIELIHPSSDKHHLKICGGFQFSMHKSGDEWREFGINHFILPEVLITMENGVSYITYTVKAEQFEIEQFKALIAHLTQNTIDSEFEIGNIKRIEDIYKDEWRDLVKDTIDVLDEHKKIVLARKRLVMFDKNINIPYILQKASQGEHNSYLFVLESQDSIFFSQTPEQLMEVNNGILSTKAVAGTIKRTHQDEVDKENIQAFLNDDKNLNEHRFVVESILNDIAPYVRDITFNETPQILTNDHLYHLYTKIKGQLENDSYIGLLDNLHPTPALGGYPKAEAIEYIEQNEFGTRGLYGAPVGYIDMNDDCEFIVAIRSMLIKKNQATLFAGCGIVKNSDADSEVEETAVKFNPMMKALGVEEYEGHHHHHH”, the “soluble on expression in E. coli” value was “soluble”.

With “PRAAARGGGGDAGTRGRGFVQAGRGAPMAECGRGGAAGGALPTSPGPALGAKGALKAGVGEGGGGGGRLGHGRARYDSGGVSNGDCSLGVSGDEARASPTRGPRGVALAPTPSAVVCTLPRESKPGGLPRRSSIIKDGTKQKRERKKTVSFSSMPTEKKISSASDCINSMVEGSELKKVRSNSRIYHRYFLLDADMQSLRWEPSKKDSEKAKIDIKSIKEVRTGKNTDIFRSNGISDQISEDCAFSVIYGENYESLDLVANSADVANIWVTGLRYLISYGKHTLDMLESSQDNMRTSWVSQMFSEIDVDNLGHITLCNAVQCIRNLNPGLKTSKIELKFKELHKSKDKAGTEVTKEEFIEVFHELCTRPEIYFLLVQFSSNKEFLDTKDLMMFLEAEQGVAHINEEISLEIIHKYEPSKEGQEKGWLSIDGFTNYLMSPDCYIFDPEHKKVCQDMKQPLSHYFINSSHNTYLIEDQFRGPSDITGYIRALKMGCRSVELDVWDGPDNEPVIYTGHTMTSQIVFRSVIDIINKYAFFASEYPLILCLENHCSIKQQKVMVQHMKKLLGDKLYTTSPNVEESYLPSPDVLKGKILIKAKKLSSNCSGVEGDVTDEDEGAEMSQRMGKENMEQPNNVPVKRFQLCKELSELVSICKSVQFKEFQVSFQVQKYWEVCSFNEVLASKYANENPGDFVNYNKRFLARVFPSPMRIDSSNMNPQDFWKCGCQIVAMNFQTPGLMMDLNIGWFRQNGNCGYVLRPAIMREEVSFFSANTKDSVPGVSPQLLHIKIISGQNFPKPKGSGAKGDVVDPYVYVEIHGIPADCAEQRTKTVHQNGDAPIFDESFEFQINLPELAMVRFVVLDDDYIGDEFIGQYTIPFECLQTGYRHVPLQSLTGEVLAHASLFVHVAITNRRGGGKPHKRGLSVRKGKKSREYASLRTLWIKTVDEVFKNAQPPIRDATDLRENMQNAVVSFKELCGLSSVANLMQCMLAVSPRFLGPDNTPLVVLNLSEQYPTMELQGIVPEVLKKIVTTYDMMIQSLKALIENADAVYEKIVHCQKAAMEFHEHLHSIGTKEGLKERKLQKAVESFTWNITILKGQADLLKYAKNETLENLKQIHFAAVSCGLNKPGTENADVQKPRRSLEVIPEKANDETGE”, the “soluble on expression in E. coli” value is “soluble”.

Turning to “MGSDKIHHHHHHMDSEIIKALKRFGFTQQESIMYVTLCRHGALTGYEAAKLAGISRSNAYAALSSLVEKGGAVVASDDTSKYVPTPRKELLVTIRRHCDETLEFLEQHLPEEQPVEMPYLTVTGYQNTMDKVRNMLRLAQLRVYISMHSGNAAQLKEDMAACAARGLKVVILSDADPQISGAIFMHNAAGTGHIKLIADTREVITGVVDQAARTGQCLYSANEHLVYLMREALLNEIELIKIRSGMSGAEPEESPTRGK”, the “soluble on expression in E. coli” value is recorded as “not soluble”.

Regarding “MSNYTIIDLNQQPHLIPSAAQWFSQKWQIPAEAYQASMQEMLTSENHVPHWWVCLNKQQDIVAGVGVIDNDFHNRADLTPNLCALYVEPTFRHQGLAGILLTTVGDFLANSGFKKLYLLTDHTTFYERYDWEFLTMVTTEEQSCARIYQKQLRQ”, the “soluble on expression in E. coli” value was “not soluble”.

Turning to “MSLSLKELLKDRLSEEELKLVRRSFEIIGDVVIIEIPDEIMHHSRDIVEAILKRHKHVKTVLRKVGEVDGVYRVARYEPIYGEKTETVVREHGCRFLVDPTKAYYSVKLSGERERIARLVGEGERVLVMFAGVGPYPIVIAKLARPREVVGVELNPHAVEYFRQNVRLNKVEGVVKVIEGDVEEVVPQLSGQFDRVVMPAPYSAENFIHLLRGKVRRGGFVHYYTFDSQNEEKILPEKVRRKFEDEGLEVEVVKMRRCGNFAPYVNRYVLDLRVLEGHHHHHH”, the “soluble on expression in E. coli” value is given as “soluble”.

In the case of “VFLPTNAQYQLLVVGVSPWDTPSPSGRISWGSAWPHQARRAQTCQRVRRHWMIDTTEAAYRLTYQPDGTSITVRENLVDILARELLGPIRGPQEVLPFSPRSQYLVGHLAPVKLTGAALIDDNAVQARANAEALAEGGGVPAYAADETTPTPTTTPKTAHPSRA”, the “soluble on expression in E. coli” value was “not soluble”.

As to “MSLSMITLWGRNNSTNVKKVLLTLEELELPYEQILAGREFGINHDADFLAMNPNGLVPLLRDDESDLILWESNAIVRYLAAQYGQKRLWIDSPARRAEAEKWMDWANQTLSNAHRGILMGLVRTPPEERDQAAIDASCKECDALFALLDAELAKVKWFSGDEFGVGDIAIAPFIYNLFNVGLTWTPRPNLQRWYQQLTERPAVRKVVMIPVSEGHHHHHH”, the “soluble on expression in E. coli” value is reported as “soluble”.

Consider “MGSDKIHHHHHHMRIHVLCDDSSQNGFESEHGFSVLVDSVLFDTGKSDVFLKNARKLGIDLPKDVLISHGHYDHAGGLLYLSGKRVWLRKEALDQKYSGERYAGADWNEVLYYNTGKFVIERITEIGKNMFLLGPANLRGKVPTGDFFVERNGERRKDLFEDEQTLVVRTKEGLVVITGCSHRGIDNILLDIAETFNERIKMVVGGFHLLKSSDDEIEKIVKAFNELGVETVVPCHCTGERAVDIFKREFLGKIMDCYAGLKLEVSD”, for which the “soluble on expression in E. coli” value is “soluble”.

Take “SLGGLKLGDLCRLKGQETNTLQGLGLVVGLQGTGDGDAAPKGRALARMMQLMGGPMAVDAAGRLNIEDVGDAKNVAMVFVSATIPTVGAQQGDVLDVTINAISAKSLDGGYLMLTPMLGPRADNPTVYGMAEGRISVSADSPPTSATIQGGLKMETSVRASYVHDNRITLVIDRDFADFSTAHMIEEEVNSLTSFTIGDRNVSRLASPNHQGTGQDGNIALARAIDQLHVEVVIPPTYRDNPIKFIAFLLDIVIPLSNRGKRVVINEADGVVVIGEDVEIAPVLVTHRNLRIEAGGGGRFVEVGPDGTPAAAKLKSLADALGALDVPTEDLIAIIKTLKAKGDLYGEVIFR”: the “soluble on expression in E. coli” value is recorded as “not soluble”.

For “MRIIEQDPWLRPYESVIESRLKYARKRETDLTGGRSGGLSDFANGHLYYGLHQDGDSWVIREFAPEATAVYLIGELSRWRRLPQFRFAPVDEAGSWELRLSCRLLPHGSRYRLFFEWPGGEGERIPAWCNRVEQDPETYLFYAQVWVPDTPYEMKHPHPNR”, the “soluble on expression in E. coli” value is recorded as “not soluble”.

In the case of “MHYVTPDLCDAYPELVQVVEPMFSNFGGRDSFGGEIVTIKCFEDNSLVKEQVDKDGKGKVLVVDGGGSLRRALLGDMLAEKAAKNGWEGIVVYGCIRDVDVIAQTDLGVQALASHPLKTDKRGIGDLNVAVTFGGVTFRPGEFVYADNNGIIVSPQALKMPELEHHHHHH”, the “soluble on expression in E. coli” value is listed as “soluble”.
